The text below walks through data of US20020151590, “Compositions and methods for regulating circadian rhythyms” (published 2002).

One data set has as its target CLOCK:BMAL1 heterodimer (Homo sapiens, UniProt O15516;O00327 O15516:1-846,O00327:1-626). The experiment in a line: EMSA; 150 mM KCl, 20 mM Tris-HCl pH 7.6, 5 mM MgCl2, 200 ng poly(dI-dC), 4 C; RXRa/RARa with 9cisRA/tRA tested as inhibitors; gel result not shown in text. The conditions noted are these: tags: reticulocyte lysate (TNT), CMX plasmids; label: 32P. The source says: (§1) A double-stranded [γ³²P]dATP-labeled consensus oligonucleotide, […] […] The samples were loaded directly onto 4% polyacrylamide-TBE gels to separate MOP4/CLOCK:BMAL1 bound DNA from free DNA. The gels were dried and analyzed on a PhosphorImager.
Background: In EMSA bound probe runs differently from free probe, usually more slowly.

The target in data set [1] is MOP4 (NPAS2):BMAL1 heterodimer (Homo sapiens, UniProt Q99743;O00327 Q99743:1-824,O00327:1-626). The description is as above. The conditions noted are these: tags: reticulocyte lysate (TNT), CMX plasmids; label: 32P.
MOP4 (NPAS2):BMAL1 heterodimer, sequence (Q99743 whole entry, chain 1 of 2): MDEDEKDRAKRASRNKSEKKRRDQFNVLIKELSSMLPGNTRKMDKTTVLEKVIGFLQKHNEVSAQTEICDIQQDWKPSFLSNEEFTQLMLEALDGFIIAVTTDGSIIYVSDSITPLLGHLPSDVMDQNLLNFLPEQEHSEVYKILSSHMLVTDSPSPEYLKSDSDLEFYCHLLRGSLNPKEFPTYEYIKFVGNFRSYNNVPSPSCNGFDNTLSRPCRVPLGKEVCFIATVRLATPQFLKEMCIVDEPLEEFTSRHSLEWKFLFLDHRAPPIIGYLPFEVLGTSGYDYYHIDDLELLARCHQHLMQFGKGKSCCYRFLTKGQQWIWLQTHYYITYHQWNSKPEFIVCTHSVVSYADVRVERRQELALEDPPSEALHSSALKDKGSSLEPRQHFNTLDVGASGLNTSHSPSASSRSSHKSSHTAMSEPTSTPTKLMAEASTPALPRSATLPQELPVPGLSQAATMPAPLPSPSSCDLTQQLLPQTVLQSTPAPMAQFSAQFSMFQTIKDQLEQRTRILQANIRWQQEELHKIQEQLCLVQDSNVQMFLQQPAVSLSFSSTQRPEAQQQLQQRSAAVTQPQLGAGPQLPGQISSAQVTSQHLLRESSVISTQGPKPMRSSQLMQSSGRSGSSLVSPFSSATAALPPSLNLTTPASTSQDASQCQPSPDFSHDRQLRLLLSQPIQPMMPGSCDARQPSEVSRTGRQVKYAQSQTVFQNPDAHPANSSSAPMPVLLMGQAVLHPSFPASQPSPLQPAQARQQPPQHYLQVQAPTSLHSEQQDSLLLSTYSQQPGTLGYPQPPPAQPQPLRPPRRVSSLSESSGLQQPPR
MOP4 (NPAS2):BMAL1 heterodimer, sequence (O00327 whole entry, chain 2 of 2): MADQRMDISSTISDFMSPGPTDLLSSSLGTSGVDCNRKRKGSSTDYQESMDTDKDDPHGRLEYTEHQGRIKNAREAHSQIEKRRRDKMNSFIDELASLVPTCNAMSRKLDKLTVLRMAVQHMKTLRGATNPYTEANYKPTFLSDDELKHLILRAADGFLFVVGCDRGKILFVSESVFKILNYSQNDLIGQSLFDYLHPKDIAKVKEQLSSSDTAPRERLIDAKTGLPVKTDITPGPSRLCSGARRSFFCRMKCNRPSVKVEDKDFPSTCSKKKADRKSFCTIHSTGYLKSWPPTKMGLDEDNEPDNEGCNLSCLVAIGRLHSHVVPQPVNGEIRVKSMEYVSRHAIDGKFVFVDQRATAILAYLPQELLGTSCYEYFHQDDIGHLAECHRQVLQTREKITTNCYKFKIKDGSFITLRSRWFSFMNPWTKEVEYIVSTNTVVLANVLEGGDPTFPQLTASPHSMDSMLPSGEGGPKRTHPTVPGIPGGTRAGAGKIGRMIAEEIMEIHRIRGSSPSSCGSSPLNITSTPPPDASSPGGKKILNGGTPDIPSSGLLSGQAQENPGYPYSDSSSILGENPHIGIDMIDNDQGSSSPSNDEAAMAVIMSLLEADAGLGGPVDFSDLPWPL
Excerpt: as §1

CLOCK:BMAL1 heterodimer, sequence (O15516 whole entry, chain 1 of 2): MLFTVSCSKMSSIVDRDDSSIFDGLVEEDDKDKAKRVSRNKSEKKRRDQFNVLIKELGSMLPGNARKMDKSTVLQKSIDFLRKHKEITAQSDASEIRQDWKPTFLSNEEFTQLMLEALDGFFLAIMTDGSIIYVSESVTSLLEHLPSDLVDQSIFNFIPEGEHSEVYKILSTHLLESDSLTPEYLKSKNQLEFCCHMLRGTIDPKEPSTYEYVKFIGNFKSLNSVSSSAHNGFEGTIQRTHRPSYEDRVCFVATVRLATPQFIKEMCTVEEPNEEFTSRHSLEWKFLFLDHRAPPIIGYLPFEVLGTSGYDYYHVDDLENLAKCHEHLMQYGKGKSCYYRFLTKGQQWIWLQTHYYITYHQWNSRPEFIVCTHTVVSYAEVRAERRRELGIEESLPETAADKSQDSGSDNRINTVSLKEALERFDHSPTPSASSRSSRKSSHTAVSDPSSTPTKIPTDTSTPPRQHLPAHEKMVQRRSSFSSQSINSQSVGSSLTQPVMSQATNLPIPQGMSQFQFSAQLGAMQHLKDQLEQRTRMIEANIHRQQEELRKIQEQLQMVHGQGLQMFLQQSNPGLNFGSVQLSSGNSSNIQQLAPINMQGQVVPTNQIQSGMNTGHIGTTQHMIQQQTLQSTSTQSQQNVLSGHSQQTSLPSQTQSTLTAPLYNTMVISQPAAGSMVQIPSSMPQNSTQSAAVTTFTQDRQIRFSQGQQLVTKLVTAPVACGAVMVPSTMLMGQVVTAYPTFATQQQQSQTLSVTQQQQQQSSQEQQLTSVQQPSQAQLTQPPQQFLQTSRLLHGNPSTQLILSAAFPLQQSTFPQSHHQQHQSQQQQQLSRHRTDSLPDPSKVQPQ
CLOCK:BMAL1 heterodimer, sequence (O00327 whole entry, chain 2 of 2): as the sequence (O00327 whole entry, chain 2 of 2) above

B1: E-box consensus oligonucleotide (dsDNA)
DNA 1: GGGACACGTGACCC
DNA 2: GGGTCACGTGTCCC
As for B1, the binding result (with CLOCK:BMAL1 heterodimer; in data set [1]) was “binds” each time.
